Data published in patent US20100183649A1 (ACADEMIA SINICA, published 2010).

B1: FMDV capsid protein VP1 (other)
chain: TTSAGESADPVTATVENYGGETQVQRRQHTDIAFILDRFVKVKPKEQVNVLDLMQIPAHTLVGALLRTATYYFSDLELAVKHEGDLTWVPNGAPETALDNTTNPTAYHKEPLTRLALPYTAPHRVLATVYNGSSKYGDTSTNNVRGDLQVLAQKAERTLPTSFNFGAIKATRVTELLYRMKRAETYCPRPLLAIQPSDARHKQRIVAPAKQLL
B2: FMDV capsid protein VP3 (other)
chain: GIFPVACSDGYGGLVTTDPKTADPVYGKVFNPPRNLLPGRFTNLLDVAEACPTFLHFDGDVPYVTTKTDSDRVLAQFDLSLAAKHMSNTFLAGLAQYYTQYSGTINLHFMFTGPTDAKARYMVAYAPPGMEPPKTPEAAAHCIHAEWDTGLNSKFTFSIPYLSAADYAYTASDVAETTNVQGWVCLFQITHGKADGDALVVLASAGKDFDLRLPVDARTQ

Experiments:
FMDV capsid protein VP0 = FMDV capsid protein VP0 (foot-and-mouth disease virus, UniProt Q6PMV1 218-504); assay: size exclusion HPLC of the U1P1 protease-treated product
FMDV capsid protein VP3 = target: B2; assay: as above

Binder | binding result (FMDV capsid protein VP0) | binding result (FMDV capsid protein VP3)
B1 | binds | binds
B2 | binds | –
